{"source": "patent US20030104423", "target": "σ70, native, untagged (pLN12) (UniProt P00579)", "sequence (P00579 whole entry)": "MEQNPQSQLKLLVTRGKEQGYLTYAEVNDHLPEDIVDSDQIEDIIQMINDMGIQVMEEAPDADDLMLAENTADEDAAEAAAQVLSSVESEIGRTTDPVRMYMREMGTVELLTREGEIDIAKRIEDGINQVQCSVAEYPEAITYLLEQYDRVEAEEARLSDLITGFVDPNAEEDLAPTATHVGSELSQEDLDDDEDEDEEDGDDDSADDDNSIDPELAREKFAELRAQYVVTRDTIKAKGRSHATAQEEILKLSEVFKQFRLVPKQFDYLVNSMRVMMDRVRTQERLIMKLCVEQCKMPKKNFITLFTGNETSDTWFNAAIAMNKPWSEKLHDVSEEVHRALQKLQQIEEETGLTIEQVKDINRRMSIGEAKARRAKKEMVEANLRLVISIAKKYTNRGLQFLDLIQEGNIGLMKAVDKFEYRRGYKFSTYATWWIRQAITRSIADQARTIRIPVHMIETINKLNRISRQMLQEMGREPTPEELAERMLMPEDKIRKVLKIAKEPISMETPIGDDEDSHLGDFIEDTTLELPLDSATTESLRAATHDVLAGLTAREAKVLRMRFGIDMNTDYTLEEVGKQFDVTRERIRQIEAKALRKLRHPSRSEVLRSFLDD"}
{"substance": "β′ 1-1407 wild type with C-terminal His6 (pTA577)", "values": [{"measurement": "Growth at 42° C. with plasmid β′ as sole source of β′ (strain RL602)", "value": "+"}]}
